In PMC12285911 (Nature Structural & Molecular Biology, 2025):

Tests used:
Settings in all cases: both partners purified
[1] = biological target: T1, Rpn1 (proteasomal receptor subunit of the 19S regulatory particle) (human (endogenous in HEK293), UniProt Q13200 1-908); test: cryo-EM structure; hs26S proteasome mixed with preincubated (20 min) FAT10–Eos + NUB1 complex in 20 mM HEPES pH 7.4, 25 mM NaCl, 25 mM KCl, 5 mM MgCl2, 2 mM ATP, for 30 s or 60 s before plunge-freezing; nonprocessing and processing states
T1 construct: Rpn1, subunit of the human 26S proteasome; stood in the experiment as a subunit of the whole hs26S proteasome; also called proteasomal Rpn1 subunit; source: endogenous, within the hs26S proteasome purified from HEK293 cells
T1 sequence (Q13200 whole entry): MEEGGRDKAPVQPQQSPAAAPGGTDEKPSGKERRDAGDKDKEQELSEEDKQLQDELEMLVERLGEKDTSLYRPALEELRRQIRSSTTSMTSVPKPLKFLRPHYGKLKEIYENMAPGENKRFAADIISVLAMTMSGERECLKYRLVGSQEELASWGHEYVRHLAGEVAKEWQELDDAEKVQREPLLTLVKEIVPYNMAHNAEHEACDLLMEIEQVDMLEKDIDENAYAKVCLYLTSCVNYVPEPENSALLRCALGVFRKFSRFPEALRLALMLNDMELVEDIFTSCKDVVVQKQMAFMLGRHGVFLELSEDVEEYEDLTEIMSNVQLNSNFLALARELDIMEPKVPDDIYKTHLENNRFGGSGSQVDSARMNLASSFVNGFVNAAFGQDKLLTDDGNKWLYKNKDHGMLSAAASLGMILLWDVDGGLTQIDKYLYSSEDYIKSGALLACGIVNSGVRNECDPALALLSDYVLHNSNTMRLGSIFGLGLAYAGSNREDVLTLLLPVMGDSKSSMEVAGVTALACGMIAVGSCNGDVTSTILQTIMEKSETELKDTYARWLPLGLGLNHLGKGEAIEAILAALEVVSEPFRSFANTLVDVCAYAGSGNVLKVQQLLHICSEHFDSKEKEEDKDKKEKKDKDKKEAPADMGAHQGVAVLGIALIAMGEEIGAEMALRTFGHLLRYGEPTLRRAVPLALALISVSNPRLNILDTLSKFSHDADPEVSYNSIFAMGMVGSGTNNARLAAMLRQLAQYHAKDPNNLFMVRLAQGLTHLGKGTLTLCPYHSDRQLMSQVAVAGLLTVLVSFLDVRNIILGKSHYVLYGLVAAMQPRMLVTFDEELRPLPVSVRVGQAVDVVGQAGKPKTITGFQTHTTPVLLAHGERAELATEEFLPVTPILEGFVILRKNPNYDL

[2] = biological target: T2, ^FAMFAT10 (GG–FAT10 N-terminally labeled with fluorescein amidite by sortase) (human, 5-FAM on the N terminus (5-FAM conjugated to the N terminus of the peptide …, attached by sortase)); test: fluorescence polarisation; kinetics: ^FAMFAT10 (20 nM) mixed with NUB1 (250–4,000 nM), polarisation over time, single exponentials, kobs against NUB1 concentration, kon by linear regression; 30 °C
T2 construct: GG added to the N terminus of FAT10 for sortase labeling (scar left after Smt3 cleavage); also called GG–FAT10 (labeled); source: E. coli BL21*, purified; sortase-labeled, enriched on Ni-NTA, gel filtration; not shown: His, N-terminal, cleaved; Smt3, N-terminal, cleaved
T2 chain: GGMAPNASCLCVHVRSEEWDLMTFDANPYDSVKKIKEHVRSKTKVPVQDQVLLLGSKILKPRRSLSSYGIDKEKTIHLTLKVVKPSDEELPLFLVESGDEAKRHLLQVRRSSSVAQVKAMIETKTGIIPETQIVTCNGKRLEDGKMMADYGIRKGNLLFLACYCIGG

[3] = biological target: T2, ^FAMFAT10 (GG–FAT10 N-terminally …); test: fluorescence polarisation; titration: ^FAMFAT10 (100 nM) incubated with varying NUB1 concentrations on ice (45 min by the legends, 30 min by the methods), polarisation read in a 384-well plate preheated to 30 °C; the Kd is called approximate (some aggregation at higher NUB1 concentrations)
[4] = biological target: T3, FAT10 (human leukocyte antigen-F-adjacent transcript 10), wild type, full length, unlabeled (human); test: SEC; NUB1 (50 µM) incubated with FAT10 (75 µM) for 30 min on ice, Superdex 200 Increase 10/300; the single complex peak was pooled and run on SEC–MALS (60 mM HEPES pH 7.4, 50 mM NaCl, 50 mM KCl, 5% glycerol, 10 mM MgCl2, 0.5 mM TCEP)
T3 construct: also called wild-type FAT10; source: E. coli BL21*, purified (Ni-NTA, His–ULP1 cleavage, HiTrap SP, gel filtration); not shown: His, N-terminal, cleaved; Smt3, N-terminal, cleaved
T3 chain: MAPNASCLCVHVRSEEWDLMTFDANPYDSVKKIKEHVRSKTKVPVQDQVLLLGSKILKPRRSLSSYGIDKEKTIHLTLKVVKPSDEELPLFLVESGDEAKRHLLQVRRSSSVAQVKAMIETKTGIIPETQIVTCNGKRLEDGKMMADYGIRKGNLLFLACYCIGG

B1: NUB1 (NEDD8 ultimate buster 1), wild type, full length (natural protein)
chain: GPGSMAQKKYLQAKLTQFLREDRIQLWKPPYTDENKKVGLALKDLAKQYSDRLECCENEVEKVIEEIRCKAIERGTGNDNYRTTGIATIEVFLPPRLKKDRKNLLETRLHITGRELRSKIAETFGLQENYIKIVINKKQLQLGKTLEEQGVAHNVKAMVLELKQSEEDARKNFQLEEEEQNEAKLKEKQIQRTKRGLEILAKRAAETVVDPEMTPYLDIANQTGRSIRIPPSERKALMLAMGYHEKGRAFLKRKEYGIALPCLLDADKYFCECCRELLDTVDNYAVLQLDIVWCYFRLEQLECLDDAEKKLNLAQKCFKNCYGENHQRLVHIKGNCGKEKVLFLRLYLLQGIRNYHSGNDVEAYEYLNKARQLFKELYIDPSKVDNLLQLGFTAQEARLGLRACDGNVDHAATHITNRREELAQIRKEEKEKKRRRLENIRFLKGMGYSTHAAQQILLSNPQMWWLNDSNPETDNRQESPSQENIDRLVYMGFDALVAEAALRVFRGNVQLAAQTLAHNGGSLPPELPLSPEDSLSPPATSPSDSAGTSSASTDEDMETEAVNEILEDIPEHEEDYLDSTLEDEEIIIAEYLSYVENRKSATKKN
notes: overhang left at the N terminus after removal of GST by precision (3C) protease; the shorter isoform, not NUB1L; codon-optimised synthetic gene in pGEX-6P-1; also called wild-type NUB1; source: E. coli BL21*, purified (GSH resin, GST–3C protease cleavage, gel filtration); not shown: GST, N-terminal, cleaved
[1]
  binding result: binds
[2]
  kon: 1600 ± 3000 M⁻¹ s⁻¹
[3]
  Kd: 176 ± 6.8 nM
[4]
  stoichiometry N: 1

B2: NUB1^Δ1–175 (domain or fragment)
chain: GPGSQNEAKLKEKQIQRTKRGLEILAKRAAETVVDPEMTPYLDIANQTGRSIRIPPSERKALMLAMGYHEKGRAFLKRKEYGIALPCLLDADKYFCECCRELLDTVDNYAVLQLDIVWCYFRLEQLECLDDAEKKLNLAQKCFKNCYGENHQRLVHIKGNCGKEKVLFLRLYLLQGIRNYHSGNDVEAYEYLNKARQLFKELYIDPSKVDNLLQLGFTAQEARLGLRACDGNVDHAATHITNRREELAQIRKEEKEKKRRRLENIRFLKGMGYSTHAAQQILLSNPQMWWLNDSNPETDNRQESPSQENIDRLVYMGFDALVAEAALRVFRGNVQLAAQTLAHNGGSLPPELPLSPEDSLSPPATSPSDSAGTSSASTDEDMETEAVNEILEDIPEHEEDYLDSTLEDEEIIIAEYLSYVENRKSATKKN
notes: overhang left at the N terminus after removal of GST by precision (3C) protease; also called linker-trap domain; source: E. coli BL21*, purified (GSH resin, GST–3C protease cleavage, gel filtration); not shown: GST, N-terminal, cleaved
[3]
  binding result: binds
